What all share (test): SPR
For orientation: Surface plasmon resonance follows binding to a sensor surface in real time, without labels.

In experiment [1] the target is ecumicin (ECU). The following applies: read off a plot.
The target of experiment [2] is ohmyungsamycin A (OMS-A). The following applies: read off a plot.
Experiment [3] addresses rufomycin I (RUF-I). The note with it: read off a plot.
Experiment [4] deals with ClpC1-NTD MAFER (Mycobacterium tuberculosis) (UniProt P9WPC9).
The target of experiment [5] is ClpC1-FL mutant K85A (Mycobacterium tuberculosis) (UniProt P9WPC9).
Experiment [6] concerns the target ClpC1-FL mutant L92S/L96P (Mycobacterium tuberculosis) (UniProt P9WPC9).
For experiment [7], the target named is ClpC1-FL mutant Q17A (Mycobacterium tuberculosis) (UniProt P9WPC9).
Experiment [8] concerns the target ClpC1-FL mutant V14A (Mycobacterium tuberculosis) (UniProt P9WPC9).
For experiment [9], the target named is ClpC1-NTD N-terminal mutant FER (residues 2-145) (Mycobacterium tuberculosis) (UniProt P9WPC9).
The target in experiment [10] is ClpC1-NTD N-terminal mutant MVFER (Mycobacterium tuberculosis) (UniProt P9WPC9).

A word on the Kd: it is the equilibrium constant for the complex coming apart. “ClpC1-NTD (SPR construct, His6-SUMO tag cleaved) (from UniProt P9WPC9) AAFER (Met1Ala mutation and Ala insertion)”: the Kd in experiment [1] (parent: est. 51 nM) was found to be 3300 nM; in [2] (parent: est. 400 nM) it was 9200 nM; in experiment [3] (parent: est. 68 nM), 1200 nM.

Turning to “ClpC1-NTD (SPR construct, His6-SUMO tag cleaved) (from UniProt P9WPC9) M1del (FER)”, the Kd was 4900 nM in experiment [2] (parent: est. 400 nM) and 360 nM in [3] (parent: est. 68 nM).

With “ClpC1-NTD (SPR construct, His6-SUMO tag cleaved) (from UniProt P9WPC9) MAF (MAFER: Ala inserted before Phe2)”, the Kd stood at 3800 nM in [1] (parent: est. 51 nM) and 9600 nM in experiment [2] (parent: est. 400 nM).

For “ClpC1-NTD (SPR construct, His6-SUMO tag cleaved) (from UniProt P9WPC9) MVAFER (ValAla inserted before Phe2)”, the Kd in experiment [3] (parent: est. 68 nM) was 900 nM.

As for “ClpC1-NTD (SPR construct, His6-SUMO tag cleaved) (from UniProt P9WPC9) MVFER (Val inserted before Phe2)”, the Kd in experiment [1] (parent: est. 51 nM) worked out at 4100 nM.

In turn, ecumicin (peptide) gave a Kd in experiment [4] of 3500 nM.

Take “full-length ClpC1 (ClpC1-FL) (from UniProt P9WPC9) K85A”: the Kd in experiment [1] (parent: est. 68 nM) stood at 580 nM; in experiment [2] (parent: est. 350 nM), 1600 nM; in experiment [3] (parent: est. 87 nM), 420 nM.

As for “full-length ClpC1 (ClpC1-FL) (from UniProt P9WPC9) L92S; L96P”, in experiment [3] (parent: est. 87 nM), the Kd was found to be 260 nM.

For “full-length ClpC1 (ClpC1-FL) (from UniProt P9WPC9) Q17A”, the Kd in experiment [2] (parent: est. 350 nM) came to 1300 nM; in experiment [3] (parent: est. 87 nM), 1400 nM.

For the substance “full-length ClpC1 (ClpC1-FL) (from UniProt P9WPC9) V14A”, the Kd was 1600 nM in experiment [2] (parent: est. 350 nM) and 630 nM in [3] (parent: est. 87 nM).

Consider rufomycin I (RUF-I) (peptide), for which the fold reduction in binding affinity against wild type in experiment [5] came to 5 fold; in experiment [6], 3 fold; in experiment [8] it was 8 fold; in [10], 6 fold. Also, the fold reduction in binding against wild type in experiment [7] came out at 17 fold; in experiment [9], 5 fold.

The values are drawn from PMC7193532 (Acta Crystallographica. Section D, Structural Biology, 2020).
